In US11857697B2, “Compositions and methods for obtaining 3-dimensional lung-like epithelium and related uses thereof” (THE REGENTS OF THE UNIVERSITY OF MICHIGAN, priority 2017, dated 2024):

System: human fetal lung buds
Test: Marker expression (QRT-PCR, immunostaining) in cultured human fetal lung buds
Type: cell-based
Description: RNA was extracted using the MagMAX-96 Total RNA Isolation System (Life Technologies). RNA quality and concentration was determined on a Nanodrop 2000 spectrophotometer (Thermo Scientific). 100 ng of RNA was used to generate a cDNA library using the SuperScript VILO cDNA master mix kit (Invitrogen) according to manufacturer's instructions. qRT-PCR analysis was conducted using Quantitect SYBR Green Master Mix (Qiagen) on a Step One Plus Real-Time PCR system (Life Technologies). Expression was calculated as a change relative to GAPDH expression using arbitrary units, which were calculated by the following equation: [2^(GAPDH Ct−Gene Ct)]×10,000. A Ct value of 40 or greater was considered not detectable. A list of primer sequences used can be found in Table 1.
Mouse bud, human bud, and HLO tissue was fixed in 4% Paraformaldehyde (Sigma) for 2 hours and rinsed in PBS overnight. Tissue was dehydrated in an alcohol series, with 30 minutes each in 25%, 50%, 75% Methanol:PBS/0.05% Tween-20, followed by 100% Methanol, and then 100% Ethanol. Tissue was processed into paraffin using an automated tissue processor (Leica ASP300). Paraffin blocks were sectioned 5-7 uM thick, and immunohistochemical staining was performed as previously described (Spence et al., 2009). A list of antibodies, antibody information and concentrations used can be found in Table 2. […]

B1: Recombinant Human Fibroblast Growth Factor 7 (protein, UniProt P21781 32-194, looked up)
Fibroblast growth factor 7: CNDMTPEQMATNVNCSSPERHTRSYDYMEGGDIRVRRLFCRTQWYLRIDKRGKVKGTQEMKNNYNIMEIRTVAVGIVAIKGVESEFYLAMNKEGKLYAKKECNEDCNFKELILENHYNTYASAKWTHNGGEMFVALNQKGIPVRGKKTKKEQKTAHFLPMAIT
notes: Recombinant human growth factor from R&D systems, used at 10 ng/mL unless otherwise noted
With B1 the “Expression of proximal airway markers P63 and SCGB1A1 (QRT-PCR)” value (4 weeks in culture, compared to 14 week old human fetal lung) was “significantly increased expression” and the “SOX9 and SOX2 immunostaining” value (sections and wholemount, 4 weeks in vitro) was “expressed both markers, but strong cytoplasmic SOX9 localization was observed”.
